According to the supplement of paper PMC9170038:

Tested on: MS2 coat protein
Test: apparent KD of MS2 coat protein; designed switch direction (-1 OFF switch, 1 ON switch): -1; higher = weaker reporter binding
How it was run: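 Designed RNA switches were transcribed on Illumina chips by stalled E. coli RNA polymerase and titrated with SNAP-549-labelled MS2 coat protein from 0.7 or 1.5 nM, doubling to 3 µM. Step length ran from 0.8–1.5 h at the lowest concentration to 10–20 min at the highest. The apparent KD is the median over clusters for each design, from curve-fitted normalised cluster fluorescence.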

[1] = input ligand: microRNA oligo, concentration not stated

Sequence	apparent KD of MS2 coat protein (input ligand: FMN 200 uM)	apparent KD of MS2 coat protein (input ligand: none)	apparent KD of MS2 coat protein [1]	apparent KD of MS2 coat protein (Eterna round: R95, input ligand: FMN 200 uM)	apparent KD of MS2 coat protein (Eterna round: R95, input ligand: microRNA oligo, concentration not stated)	apparent KD of MS2 coat protein (Eterna round: R95, input ligand: none)
AUCCCUUGAGUAAGGAUAUGGCCAGGGAGGUCUGGCCAGAAGGUACAUGAGGAUCACCCAUGUAGGUUGUCGCA [Eternabot (L2) Solution 44] (Eterna round: R97, puzzle: Brourd's mod of Exclusion 4)	56 nM	20.6 nM				
AUCCGUUCUUAGGAUAUUUGAUAAGUCAUGUACGAAGAAGGAAGAACAUGAGGAUCACCCAUGUGGGACUUCGG [Eternabot (L2) Solution 12] (Eterna round: R97, puzzle: Exclusion 6)	29 nM	25.9 nM				
AUCCUUAACAAGGAUAUCGGGCGGGUUUUUGUUUGAGAAGGUGUGACAUGAGGAUCACCCAUGUGGCGCGUGGG [-22, -20.4 kcal, A 22%] (Eterna round: R97, puzzle: Exclusion 6)	285 nM	887 nM				
AUCGGCUCAGUCAGGAUAUGAUUGAAUCGUUGCAAUUAGAAGGGACAUGAGGAUCACCCAUGUGCGGUGCGGUC [Eternabot (L1) Solution 27] (Eterna round: R97, puzzle: Brourd's mod of Exclusion 4)	178 nM	169 nM				
AUCGGGUCAGGAUAUCAUAGGAGCUGAUAUCCUCGGCUCGGUGAGAAGGGACUUGAGGAUCACCCAAGUAGGGC [Ririonte] (Eterna round: R97, puzzle: Exclusion 4)	44.4 nM	46.1 nM				
AUCGUGCAGCAAAGCUGUACGAGUACAUGAGGAUCACCCAUGUAGGAUAUGGUACGCAAAGCGUGCUAGAAGGAUAUGUGUAGG [Mat - Exclusion NG 3 - Mod of JL - D84] (Eterna round: R96, puzzle: Exclusion NG 3)	69.6 nM	57.1 nM	44.6 nM			
AUCGUGCAGCUUUGCUGUACGAGUACAUGAGGAUCACCCAUGUAGGAUAUGGUACGCAAAGCGUGCUAGAAGGAUAUGAGAAAU [Mat - Exclusion NG 3 - Mod of JL - D99] (Eterna round: R96, puzzle: Exclusion NG 3)	30.7 nM	36.3 nM	18.8 nM			
AUCGUGCAGCUUUGCUGUACGAGUACAUGAGGAUCACCCAUGUAGGAUAUGGUACGCUUUGCGUGCUAGAAGGAUAUGCGAUUG [EX ENG3 1.46] (Eterna round: R96, puzzle: Exclusion NG 3)			36.5 nM			
AUCGUGCAGCUUUGCUGUACGAGUACAUGAGGAUCACCCAUGUAGGAUAUGGUACGCUUUGCGUGCUAGAAGGAUAUGUGUAGG [JL EXNG3 1.36] (Eterna round: R96, puzzle: Exclusion NG 3)	49.1 nM	50.3 nM	30.7 nM			
AUCGUGUGAGGAUAUCGAUCAUGGAGGUCUAGGUCCAUGCGCGAGAAGGCACAUGAGGAUCACCCAUGUAAUGG [jl-ex4-4.30 ViennaUCT mod] (Eterna round: R97, puzzle: Exclusion 4)	65.3 nM	66.5 nM				
AUCUACCGAGCAGGAUAUCCAGGCACAUGAGGAUCACCCAUGUCAGGGAGAGAAGUUGUUUGCGUGGAGAAGGGCUAUAAAUUA [Isdiatte] (Eterna round: R96, puzzle: Exclusion NG 2)	314 nM	162 nM	163 nM			
AUCUGUGAGCGAGGAUAUCUGCUGUUGUCGGUCGGAGAAGGCGCGGACAGAACAUGAGGAUCACCCAUGUGUAUGGGCGGCCUC [Isvetima] (Eterna round: R96, puzzle: Exclusion NG 1)	256 nM	99.6 nM	14.1 nM			
AUGAGACAUGAGGAUCACCCAUGUGAGGAUAUGUAUGGAUGGAGGAAAGAAUGAGAGAACAGAAGGCACGGAGG [JR_Exclu1_Sub065] (puzzle: Exclusion 1)				70.7 nM	72.7 nM	112 nM
